Measurements as given in patent publication US20130310313A1.

B1: IRBP-9C (SEQ ID NO:192) (peptide)
peptide: RYKYQWWYI
B2: IRBP-9B (SEQ ID NO:191) (peptide)
peptide: RYKYQCFYI
B3: IRBP-9A (SEQ ID NO:190) (peptide)
peptide: RYKYQWFYI
B4: IRBP-9D (SEQ ID NO:193) (peptide)
peptide: RYKYQCWYI

What follows are binders tested against insulin receptor (insulin receptor tyrosine kinase assay) (assay: cell-based or functional assay).

Row | activity of insulin receptor tyrosine kinase [U/ml] | Binder
1 | 44.2 | B1
2 | 79.8 | B2
3 | 40.3 | B3
4 | 66 | B4
